Measurements from paper PMC12452654.

Assays:
[1] = target: HtpG from Synechococcus elongatus PCC 7942 (Synechococcus elongatus PCC 7942); assay: SEC; Superdex 200 16/60, 40 mM HEPES-KOH pH 7.5, 150 mM KCl, 0.5 mM TCEP, 0.5 mL/min; peak at 65 mL, close to the 158 kDa IgG standard
[2] = target: HtpG from Synechococcus elongatus PCC 7942 (Synechococcus elongatus PCC 7942); assay: AUC; sedimentation velocity, 45,000 rpm, 20 °C, 4 µM seHtpG, 40 mM HEPES-KOH pH 7.5, 150 mM KCl, 1 mM β-mercaptoethanol, absorbance at 280 nm

stoichiometry N [1]: 2 | stoichiometry N [2]: 2
Substance: HtpG from Synechococcus elongatus PCC 7942 (natural protein)
